Data: publication PMC11641934

Molecular target: heat shock protein 70 (HSP70) (human (endogenous in PDAC cell lines and CAFs)) (UniProt P0DMV8)
UniProt P0DMV8, sequence (P0DMV8 whole entry): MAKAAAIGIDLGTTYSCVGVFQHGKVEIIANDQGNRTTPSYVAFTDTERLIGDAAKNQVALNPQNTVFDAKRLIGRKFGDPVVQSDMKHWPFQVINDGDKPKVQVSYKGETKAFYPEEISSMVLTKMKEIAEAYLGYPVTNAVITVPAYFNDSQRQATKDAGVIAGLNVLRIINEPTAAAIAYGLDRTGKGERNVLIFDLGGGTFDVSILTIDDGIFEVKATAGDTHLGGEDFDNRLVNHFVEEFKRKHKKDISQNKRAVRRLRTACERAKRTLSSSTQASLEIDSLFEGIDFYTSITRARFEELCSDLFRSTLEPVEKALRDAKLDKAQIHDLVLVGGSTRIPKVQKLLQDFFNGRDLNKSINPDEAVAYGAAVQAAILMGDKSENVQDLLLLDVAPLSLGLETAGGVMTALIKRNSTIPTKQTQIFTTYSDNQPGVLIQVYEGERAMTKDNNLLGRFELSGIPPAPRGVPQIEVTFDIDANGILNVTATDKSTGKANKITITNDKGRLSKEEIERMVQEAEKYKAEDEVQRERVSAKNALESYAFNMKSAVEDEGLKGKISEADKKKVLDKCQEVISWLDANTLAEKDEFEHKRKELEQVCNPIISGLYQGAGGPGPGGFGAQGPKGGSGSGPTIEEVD

A % rescue by recombinant Pn 2-1 in GEM-treated AsPC1 cells, CTRL siRNA group (counteracted by HSPA1A knockdown) of 11.2%, a % rescue by recombinant Pn 2-1 in GEM-treated BxPC3 cells, CTRL siRNA group (counteracted by HSPA1A knockdown) of 5.4% and a % rescue by recombinant Pn 2-1 in GEM-treated Panc1 cells, CTRL siRNA group (counteracted by HSPA1A knockdown) of 86.3% were found for “His tagged-recombinant Pn-ASV with exon 21 (Pn 2-1) (from UniProt Q15063-5 22-809) (natural protein)” in this work.
